This passage reports Kd results from article PMC8455617 (2021).

The chains are these.
T1: citrate synthase, mitochondrial (Sus scrofa, UniProt P00889)
T1 chain: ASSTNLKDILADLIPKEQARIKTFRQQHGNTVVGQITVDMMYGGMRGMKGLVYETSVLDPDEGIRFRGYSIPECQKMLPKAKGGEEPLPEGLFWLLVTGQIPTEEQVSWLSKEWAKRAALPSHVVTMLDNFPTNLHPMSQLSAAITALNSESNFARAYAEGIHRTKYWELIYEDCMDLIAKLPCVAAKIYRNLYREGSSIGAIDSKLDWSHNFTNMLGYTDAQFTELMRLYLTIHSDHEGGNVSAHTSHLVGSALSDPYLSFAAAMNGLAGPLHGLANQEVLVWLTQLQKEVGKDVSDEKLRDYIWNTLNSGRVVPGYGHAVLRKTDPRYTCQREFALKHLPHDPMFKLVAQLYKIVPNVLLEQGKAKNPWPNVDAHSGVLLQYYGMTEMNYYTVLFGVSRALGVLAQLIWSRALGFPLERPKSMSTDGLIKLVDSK

B1: malate dehydrogenase, mitochondrial (protein)
chain: AKVAVLGASGGIGQPLSLLLKNSPLVSRLTLYDIAHTPGVAADLSHIETRATVKGYLGPEQLPDCLKGCDVVVIPAGVPRKPGMTRDDLFNTNATIVATLTAACAQHCPDAMICIISNPVNSTIPITAEVFKKHGVYNPNKIFGVTTLDIVRANAFVAELKGLDPARVSVPVIGGHAGKTIIPLISQCTPKVDFPQDQLSTLTGRIQEAGTEVVKAKAGAGSATLSMAYAGARFVFSLVDAMNGKEGVVECSFVKSQETDCPYFSTPLLLGKKGIEKNLGIGKISPFEEKMIAEAIPELKASIKKGEEFVKNMK
modifications: 10 mM succinyl-CoA
B2: malate dehydrogenase, mitochondrial (protein)
chain: AKVAVLGASGGIGQPLSLLLKNSPLVSRLTLYDIAHTPGVAADLSHIETRATVKGYLGPEQLPDCLKGCDVVVIPAGVPRKPGMTRDDLFNTNATIVATLTAACAQHCPDAMICIISNPVNSTIPITAEVFKKHGVYNPNKIFGVTTLDIVRANAFVAELKGLDPARVSVPVIGGHAGKTIIPLISQCTPKVDFPQDQLSTLTGRIQEAGTEVVKAKAGAGSATLSMAYAGARFVFSLVDAMNGKEGVVECSFVKSQETDCPYFSTPLLLGKKGIEKNLGIGKISPFEEKMIAEAIPELKASIKKGEEFVKNMK
modifications: 10 mM succinate
B3: malate dehydrogenase, mitochondrial (protein)
chain: AKVAVLGASGGIGQPLSLLLKNSPLVSRLTLYDIAHTPGVAADLSHIETRATVKGYLGPEQLPDCLKGCDVVVIPAGVPRKPGMTRDDLFNTNATIVATLTAACAQHCPDAMICIISNPVNSTIPITAEVFKKHGVYNPNKIFGVTTLDIVRANAFVAELKGLDPARVSVPVIGGHAGKTIIPLISQCTPKVDFPQDQLSTLTGRIQEAGTEVVKAKAGAGSATLSMAYAGARFVFSLVDAMNGKEGVVECSFVKSQETDCPYFSTPLLLGKKGIEKNLGIGKISPFEEKMIAEAIPELKASIKKGEEFVKNMK
modifications: 10 mM oxaloacetate and acetyl-CoA
B4: malate dehydrogenase, mitochondrial (protein)
chain: AKVAVLGASGGIGQPLSLLLKNSPLVSRLTLYDIAHTPGVAADLSHIETRATVKGYLGPEQLPDCLKGCDVVVIPAGVPRKPGMTRDDLFNTNATIVATLTAACAQHCPDAMICIISNPVNSTIPITAEVFKKHGVYNPNKIFGVTTLDIVRANAFVAELKGLDPARVSVPVIGGHAGKTIIPLISQCTPKVDFPQDQLSTLTGRIQEAGTEVVKAKAGAGSATLSMAYAGARFVFSLVDAMNGKEGVVECSFVKSQETDCPYFSTPLLLGKKGIEKNLGIGKISPFEEKMIAEAIPELKASIKKGEEFVKNMK
modifications: 10 mM alpha-ketoglutarate
B5: malate dehydrogenase, mitochondrial (protein)
chain: AKVAVLGASGGIGQPLSLLLKNSPLVSRLTLYDIAHTPGVAADLSHIETRATVKGYLGPEQLPDCLKGCDVVVIPAGVPRKPGMTRDDLFNTNATIVATLTAACAQHCPDAMICIISNPVNSTIPITAEVFKKHGVYNPNKIFGVTTLDIVRANAFVAELKGLDPARVSVPVIGGHAGKTIIPLISQCTPKVDFPQDQLSTLTGRIQEAGTEVVKAKAGAGSATLSMAYAGARFVFSLVDAMNGKEGVVECSFVKSQETDCPYFSTPLLLGKKGIEKNLGIGKISPFEEKMIAEAIPELKASIKKGEEFVKNMK
modifications: 10 mM ATP
B6: malate dehydrogenase, mitochondrial (protein)
chain: AKVAVLGASGGIGQPLSLLLKNSPLVSRLTLYDIAHTPGVAADLSHIETRATVKGYLGPEQLPDCLKGCDVVVIPAGVPRKPGMTRDDLFNTNATIVATLTAACAQHCPDAMICIISNPVNSTIPITAEVFKKHGVYNPNKIFGVTTLDIVRANAFVAELKGLDPARVSVPVIGGHAGKTIIPLISQCTPKVDFPQDQLSTLTGRIQEAGTEVVKAKAGAGSATLSMAYAGARFVFSLVDAMNGKEGVVECSFVKSQETDCPYFSTPLLLGKKGIEKNLGIGKISPFEEKMIAEAIPELKASIKKGEEFVKNMK
modifications: 10 mM citrate
B7: malate dehydrogenase, mitochondrial (protein)
chain: AKVAVLGASGGIGQPLSLLLKNSPLVSRLTLYDIAHTPGVAADLSHIETRATVKGYLGPEQLPDCLKGCDVVVIPAGVPRKPGMTRDDLFNTNATIVATLTAACAQHCPDAMICIISNPVNSTIPITAEVFKKHGVYNPNKIFGVTTLDIVRANAFVAELKGLDPARVSVPVIGGHAGKTIIPLISQCTPKVDFPQDQLSTLTGRIQEAGTEVVKAKAGAGSATLSMAYAGARFVFSLVDAMNGKEGVVECSFVKSQETDCPYFSTPLLLGKKGIEKNLGIGKISPFEEKMIAEAIPELKASIKKGEEFVKNMK
modifications: 10 mM NADH
B8: malate dehydrogenase, mitochondrial (protein)
chain: AKVAVLGASGGIGQPLSLLLKNSPLVSRLTLYDIAHTPGVAADLSHIETRATVKGYLGPEQLPDCLKGCDVVVIPAGVPRKPGMTRDDLFNTNATIVATLTAACAQHCPDAMICIISNPVNSTIPITAEVFKKHGVYNPNKIFGVTTLDIVRANAFVAELKGLDPARVSVPVIGGHAGKTIIPLISQCTPKVDFPQDQLSTLTGRIQEAGTEVVKAKAGAGSATLSMAYAGARFVFSLVDAMNGKEGVVECSFVKSQETDCPYFSTPLLLGKKGIEKNLGIGKISPFEEKMIAEAIPELKASIKKGEEFVKNMK
modifications: 10 mM CoA
B9: malate dehydrogenase, mitochondrial (protein)
chain: AKVAVLGASGGIGQPLSLLLKNSPLVSRLTLYDIAHTPGVAADLSHIETRATVKGYLGPEQLPDCLKGCDVVVIPAGVPRKPGMTRDDLFNTNATIVATLTAACAQHCPDAMICIISNPVNSTIPITAEVFKKHGVYNPNKIFGVTTLDIVRANAFVAELKGLDPARVSVPVIGGHAGKTIIPLISQCTPKVDFPQDQLSTLTGRIQEAGTEVVKAKAGAGSATLSMAYAGARFVFSLVDAMNGKEGVVECSFVKSQETDCPYFSTPLLLGKKGIEKNLGIGKISPFEEKMIAEAIPELKASIKKGEEFVKNMK
modifications: 20 mM ATP
B10: malate dehydrogenase, mitochondrial (protein)
chain: AKVAVLGASGGIGQPLSLLLKNSPLVSRLTLYDIAHTPGVAADLSHIETRATVKGYLGPEQLPDCLKGCDVVVIPAGVPRKPGMTRDDLFNTNATIVATLTAACAQHCPDAMICIISNPVNSTIPITAEVFKKHGVYNPNKIFGVTTLDIVRANAFVAELKGLDPARVSVPVIGGHAGKTIIPLISQCTPKVDFPQDQLSTLTGRIQEAGTEVVKAKAGAGSATLSMAYAGARFVFSLVDAMNGKEGVVECSFVKSQETDCPYFSTPLLLGKKGIEKNLGIGKISPFEEKMIAEAIPELKASIKKGEEFVKNMK
modifications: 10 mM oxaloacetate and NADH
B11: malate dehydrogenase, mitochondrial (protein)
chain: AKVAVLGASGGIGQPLSLLLKNSPLVSRLTLYDIAHTPGVAADLSHIETRATVKGYLGPEQLPDCLKGCDVVVIPAGVPRKPGMTRDDLFNTNATIVATLTAACAQHCPDAMICIISNPVNSTIPITAEVFKKHGVYNPNKIFGVTTLDIVRANAFVAELKGLDPARVSVPVIGGHAGKTIIPLISQCTPKVDFPQDQLSTLTGRIQEAGTEVVKAKAGAGSATLSMAYAGARFVFSLVDAMNGKEGVVECSFVKSQETDCPYFSTPLLLGKKGIEKNLGIGKISPFEEKMIAEAIPELKASIKKGEEFVKNMK
modifications: 5 mM ATP
B12: malate dehydrogenase, mitochondrial (protein)
chain: AKVAVLGASGGIGQPLSLLLKNSPLVSRLTLYDIAHTPGVAADLSHIETRATVKGYLGPEQLPDCLKGCDVVVIPAGVPRKPGMTRDDLFNTNATIVATLTAACAQHCPDAMICIISNPVNSTIPITAEVFKKHGVYNPNKIFGVTTLDIVRANAFVAELKGLDPARVSVPVIGGHAGKTIIPLISQCTPKVDFPQDQLSTLTGRIQEAGTEVVKAKAGAGSATLSMAYAGARFVFSLVDAMNGKEGVVECSFVKSQETDCPYFSTPLLLGKKGIEKNLGIGKISPFEEKMIAEAIPELKASIKKGEEFVKNMK
modifications: 10 mM ADP
B13: malate dehydrogenase, mitochondrial (protein)
chain: AKVAVLGASGGIGQPLSLLLKNSPLVSRLTLYDIAHTPGVAADLSHIETRATVKGYLGPEQLPDCLKGCDVVVIPAGVPRKPGMTRDDLFNTNATIVATLTAACAQHCPDAMICIISNPVNSTIPITAEVFKKHGVYNPNKIFGVTTLDIVRANAFVAELKGLDPARVSVPVIGGHAGKTIIPLISQCTPKVDFPQDQLSTLTGRIQEAGTEVVKAKAGAGSATLSMAYAGARFVFSLVDAMNGKEGVVECSFVKSQETDCPYFSTPLLLGKKGIEKNLGIGKISPFEEKMIAEAIPELKASIKKGEEFVKNMK
modifications: 1.25 mM ATP
B14: malate dehydrogenase, mitochondrial (protein)
chain: AKVAVLGASGGIGQPLSLLLKNSPLVSRLTLYDIAHTPGVAADLSHIETRATVKGYLGPEQLPDCLKGCDVVVIPAGVPRKPGMTRDDLFNTNATIVATLTAACAQHCPDAMICIISNPVNSTIPITAEVFKKHGVYNPNKIFGVTTLDIVRANAFVAELKGLDPARVSVPVIGGHAGKTIIPLISQCTPKVDFPQDQLSTLTGRIQEAGTEVVKAKAGAGSATLSMAYAGARFVFSLVDAMNGKEGVVECSFVKSQETDCPYFSTPLLLGKKGIEKNLGIGKISPFEEKMIAEAIPELKASIKKGEEFVKNMK
modifications: 10 mM oxaloacetate
B15: malate dehydrogenase, mitochondrial (protein)
chain: AKVAVLGASGGIGQPLSLLLKNSPLVSRLTLYDIAHTPGVAADLSHIETRATVKGYLGPEQLPDCLKGCDVVVIPAGVPRKPGMTRDDLFNTNATIVATLTAACAQHCPDAMICIISNPVNSTIPITAEVFKKHGVYNPNKIFGVTTLDIVRANAFVAELKGLDPARVSVPVIGGHAGKTIIPLISQCTPKVDFPQDQLSTLTGRIQEAGTEVVKAKAGAGSATLSMAYAGARFVFSLVDAMNGKEGVVECSFVKSQETDCPYFSTPLLLGKKGIEKNLGIGKISPFEEKMIAEAIPELKASIKKGEEFVKNMK
modifications: 10 mM malate
B16: malate dehydrogenase, mitochondrial (protein)
chain: AKVAVLGASGGIGQPLSLLLKNSPLVSRLTLYDIAHTPGVAADLSHIETRATVKGYLGPEQLPDCLKGCDVVVIPAGVPRKPGMTRDDLFNTNATIVATLTAACAQHCPDAMICIISNPVNSTIPITAEVFKKHGVYNPNKIFGVTTLDIVRANAFVAELKGLDPARVSVPVIGGHAGKTIIPLISQCTPKVDFPQDQLSTLTGRIQEAGTEVVKAKAGAGSATLSMAYAGARFVFSLVDAMNGKEGVVECSFVKSQETDCPYFSTPLLLGKKGIEKNLGIGKISPFEEKMIAEAIPELKASIKKGEEFVKNMK
modifications: 10 mM AMP

Several values for one entry are separate records, joined by “and”; a condition that tells them apart may be missing. Equal entries are not always repeated.

This experiment addresses T1, citrate synthase, mitochondrial. Put plainly: MST.
B1 registered a Kd of 1970 nM.

The molecule B2 showed a Kd of 180 nM.

Consider B3, for which the Kd came out at 520 nM.

Consider B4, for which the Kd turned out to be 1140 nM. With B5 the figure was 760 nM and 460 nM; with B6, 25100 nM.

B7 yielded a Kd of 7500 nM. Molecule B8 displayed a Kd of 2320 nM. For the molecule B9, the affinity, expressed as Kd, was 720 nM. Regarding B10, the Kd worked out at 2010 nM.

On to B11, for which the Kd amounted to 770 nM.

In the case of B12, binding was characterised by a dissociation constant (Kd) of 2240 nM.

On to B13, for which binding was put at a Kd of 1060 nM. B14 showed a Kd of 2230 nM. With B15 the figure was 1850 nM and 1800 nM; with B16, 3100 nM.
